The values below come from patent US20220017617A1 (SHANGHAI EPIMAB BIOTHERAPEUTICS, published 2022).

The target in test [1] is T1, recombinant human PD-L1 (Novoprotein) (human, UniProt Q9NZQ7 19-239, limits assumed).
T1 construct: Bought reagent; also called Programmed Death Ligand 1; CD274
The test is described as follows: BLI (Octet RED96), FIT-Ig captured on anti-human IgG Fc sensors, antigen in solution, 1:1 fit. The procedure:
(§1) Briefly, each parental mAb and FIT-Ig was characterized for affinities and binding kinetics by Octet®RED96 biolayer interferometry (Pall FortéBio LLC). Each parental mAb and FIT-Ig were captured by Anti-Human IgG Fc Capture (AHC) Biosensors (Pall) at a concentration of 100 nM for 30 seconds. Sensors were then dipped into running buffer (1X, pH 7.2, PBS, 0.05% Tween 20, 0.1% BSA) for 60 seconds to check baseline. Binding was measured by dipping sensors into […] recombinant human PD-L1 (Novoprotein) or recombinant human EGFR (Sino Biological Inc) both ranging from 1 nM to 200 nM. Dissociation was followed by dipping sensors into running buffer for 1200 seconds. The association and dissociation curves were fitted to a 1:1 Langmuir binding model using ForteBio Data Analysis software (Pall).
(BLI is a label-free optical method that tracks binding on a fibre tip over time.)

The target in test [2] is T2, recombinant human EGFR (Sino Biological Inc) (human, UniProt P00533 25-645).
T2 construct: Bought reagent; also called epidermal growth factor receptor
The test is described as above. The procedure: as §1

In test [3] the target is T1, recombinant human PD-L1 (Novoprotein). Nature of the test: BLI (Octet RED96), antibody captured on anti-human IgG Fc sensors, antigen in solution, 1:1 fit. The procedure: as §1
For test [4] the target is unchanged. The test is described as follows: BLI (Octet RED96), comparison of KD values. As to the method:
as §1

In test [5] the target is T2, recombinant human EGFR (Sino Biological …). Nature of the test: BLI (Octet RED96), comparison of KD values. As to the method: as §1

T1 sequence (Q9NZQ7 19-239 limits assumed): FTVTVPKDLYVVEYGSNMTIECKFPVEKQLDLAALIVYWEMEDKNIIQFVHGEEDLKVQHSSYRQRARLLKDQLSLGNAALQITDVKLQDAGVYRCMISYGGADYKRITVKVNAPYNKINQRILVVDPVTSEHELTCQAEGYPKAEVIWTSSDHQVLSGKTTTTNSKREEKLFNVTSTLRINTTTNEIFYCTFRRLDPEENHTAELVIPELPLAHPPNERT

B1: PD-L1/EGFR FIT-Ig5 (bispecific antibody, human IgG1, kappa)
heavy: not shown
chain: QVQLVQSGAEVKKPGASVKVSCKASGYTFTDYGFSWVRQAPGQGLEWMGWITAYNGNTNYAQKLQGRVTMTTDTSTSTVYMELRSLRSDDTAVYYCARDYFYGMDVWGQGTTVTVSSASTKGPSVFPLAPSSKSTSGGTAALGCLVKDYFPEPVTVSWNSGALTSGVHTFPAVLQSSGLYSLSSVVTVPSSSLGTQTYICNVNHKPSNTKVDKKVEPKSC
light: not shown
notes: Six-chain hexamer with no linkers; Human IgG1 Fc
In the case of B1, in test [1], the Kd came out at 11.1 nM, the koff worked out at 0.0156 s⁻¹ and the kon is 1.4e+06 M⁻¹ s⁻¹. In test [2], the Kd came to 0.379 nM, the koff is 6.14e-05 s⁻¹ and the kon was found to be 162000 M⁻¹ s⁻¹.

B2: anti-PD-L1 monoclonal antibody 3G10 (parental) (antibody, V domains shown)
VH: QVQLVQSGAEVKKPGASVKVSCKASGYTFTDYGFSWVRQAPGQGLEWMGWITAYNGNTNYAQKLQGRVTMTTDTSTSTVYMELRSLRSDDTAVYYCARDYFYGMDVWGQGTTVTVSS
VL: EIVLTQSPATLSLSPGERATLSCRASQSVSSYLVWYQQKPGQAPRLLIYDASNRATGIPARFSGSGSGTDFTLTISSLEPEDFAVYYCQQRSNWPRTFGQGTKVEIK
notes: It was captured by anti-human IgG Fc sensors; also called mAb 3G10; parental anti-PD-L1 mAb 3G10
B2: in test [3], the Kd stood at 12.5 nM, the koff came to 0.0122 s⁻¹ and the kon came out at 979000 M⁻¹ s⁻¹.

B3: EGFR/PD-L1 FIT-Ig6 (bispecific antibody, human IgG1, kappa)
heavy: not shown
chain: QVQLQESGPGLVKPSETLSLTCTVSGGSVSSGDYYWTWIRQSPGKGLEWIGHIYYSGNTNYNPSLKSRLTISIDTSKTQFSLKLSSVTAADTAIYYCVRDRVTGAFDIWGQGTMVTVSSASTKGPSVFPLAPSSKSTSGGTAALGCLVKDYFPEPVTVSWNSGALTSGVHTFPAVLQSSGLYSLSSVVTVPSSSLGTQTYICNVNHKPSNTKVDKKVEPKSC
light: not shown
notes: as for B1
On to B3, for which, in test [1], the Kd came out at 16.3 nM, the koff is 0.0144 s⁻¹ and the kon worked out at 886000 M⁻¹ s⁻¹. Moreover, in test [2], the Kd came to 0.491 nM, the dissociation rate constant (koff) stood at 0.000107 s⁻¹ and the kon was 218000 M⁻¹ s⁻¹. Besides, the “KD higher than that of the parental mAb 3G10” value in test [4] is around 30%. In addition, the “KD lower than that of the parental panitumumab” value in test [5] is around 25%.

What is called Kd is the free concentration of one partner at which half of the binding sites on the other are occupied at equilibrium, for simple one-to-one binding. For orientation: koff means a measure of how fast the partners let go of each other. As usually defined, the kon is a measure of how fast the partners come together.
